Consider one substance from patent US20050152888A1.

Assay [1] concerns the target Rpn10 proteasome subunit C-terminally fused with Fpr1 (strain Rpn10-FPR1) (S. cerevisiae) (UniProt P38886). The assay is described as follows: cell-based or functional assay.
The target of assay [2] is Pre10 proteasome subunit C-terminally fused with Fpr1 (strain Pre10-FPR1) (S. cerevisiae) (UniProt P21242). The assay is described as follows: cell-based or functional assay.
Chain of Pre10 proteasome subunit C-terminally fused with Fpr1 (strain Pre10-FPR1) (S. cerevisiae) (P21242 other isoform, or with tags, fused parts or gaps): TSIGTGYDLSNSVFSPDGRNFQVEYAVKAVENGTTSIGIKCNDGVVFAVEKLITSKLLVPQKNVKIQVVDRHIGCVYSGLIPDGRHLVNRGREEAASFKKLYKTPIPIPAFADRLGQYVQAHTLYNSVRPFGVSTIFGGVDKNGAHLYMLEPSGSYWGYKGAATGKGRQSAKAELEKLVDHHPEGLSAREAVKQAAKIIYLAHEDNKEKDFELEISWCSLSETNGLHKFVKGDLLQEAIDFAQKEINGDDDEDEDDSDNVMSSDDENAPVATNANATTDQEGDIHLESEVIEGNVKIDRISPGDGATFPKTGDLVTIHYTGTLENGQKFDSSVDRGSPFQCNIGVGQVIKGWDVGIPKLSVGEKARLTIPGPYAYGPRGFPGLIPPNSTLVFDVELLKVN

Chain of Rpn10 proteasome subunit C-terminally fused with Fpr1 (strain Rpn10-FPR1) (S. cerevisiae) (P38886 other isoform, or with tags, fused parts or gaps): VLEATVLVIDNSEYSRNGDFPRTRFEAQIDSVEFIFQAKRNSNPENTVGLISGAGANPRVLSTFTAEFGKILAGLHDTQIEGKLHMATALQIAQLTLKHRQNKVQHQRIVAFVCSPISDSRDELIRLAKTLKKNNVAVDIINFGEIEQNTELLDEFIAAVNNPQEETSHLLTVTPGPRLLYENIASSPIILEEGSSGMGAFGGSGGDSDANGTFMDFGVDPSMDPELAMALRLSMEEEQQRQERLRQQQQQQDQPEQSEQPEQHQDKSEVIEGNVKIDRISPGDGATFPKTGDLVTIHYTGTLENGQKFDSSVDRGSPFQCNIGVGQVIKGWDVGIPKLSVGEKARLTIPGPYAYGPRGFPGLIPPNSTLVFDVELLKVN

As to “HA epitope-tagged Tor-His3 expressed in yeast (p415-TOR-link-HIS3HA) (from UniProt P35169 1883-2078; P06633 1-220)”, the half-life of reporter degradation in vivo with rapamycin (cycloheximide chase, anti-HA Western) in assay [1] and in assay [2] was 20 to 30 min throughout.
